The values that follow come from publication PMC6997208, “Conversion of walnut tyrosinase into a catechol oxidase by site directed mutagenesis” (Scientific Reports, 2020).

What all share (test): spectrophotometric quinone formation
Holding throughout (type): biochemical, Juglans regia

Substrate in series [1]: NCCc1ccc(O)c(O)c1
The note with it: 50 mM sodium phosphate pH 6.0, 2 mM SDS as activator, 25 °C, diphenolase. The text has this: (§1) spectrophotometric quinone formation on jrPPO1-wt

Substrate in series [2]: NCCc1ccc(O)cc1
To be noted: 50 mM sodium phosphate pH 6.0, 2 mM SDS as activator, 25 °C, monophenolase.
Text: as §1

Substrate in series [3]: N[C@@H](Cc1ccc(O)c(O)c1)C(=O)O
The note with it: 50 mM sodium phosphate pH 6.0, 2 mM SDS as activator, 25 °C, diphenolase.
Text: as §1

Substrate in series [4]: N[C@@H](Cc1ccc(O)cc1)C(=O)O
The note with it: 50 mM sodium phosphate pH 6.0, 2 mM SDS as activator, 25 °C, monophenolase.
Text: as §1

As usually defined, the Km is the substrate concentration at which the rate is half of its maximum. As a reminder, the kcat is the maximal rate divided by the concentration of active sites. In general, kcat/Km refers to the second-order rate constant that governs catalysis at low substrate concentration.

B1: jrPPO1-wt (Juglans regia; V207I) (protein)
chain: DPVSAPELTLCSEADLPAGALPVNCCPPTSKKIKDFVLPSQNTPLRVRPAAHLVDNDYIAKYNKGIELMKSLPADDPRSFTQQANVHCAYCDGAYTQVGFPDLSLQIHECWLFFPFHRYYVYFFEKILGKLIGDPTFALPFWNWDSPPGMQLPSLYAVSNSAIYDPLRNANHQPPTIIDLDYGETSESTTTTDQVPSNLKIMYRQMVSGAKNPTLFFGSPYRAGDEPDPGAGTIESTPHNNIHLWTGDDTQPNIENMGNFYSAGRDPIFFAHHSNVDRMWTIWKTLGGKRKDITDPDWLNSSFFFYDENADPVRVKVKDCVDNTKLRYVYQDVEIPWLKTKPTPRKSRVKKVAKAFPAGHGGVAQAAETSSVKFPIVLDKVISTVVARPKKSRSKKEKDDEEEVLVIEGIEVERDIPVKFDVFINDEDDAPTGPGINTEFAGSFVSVPQQKQTKKKKTYLRIGISDLLEDLGAEDDDSVVVTLVPRFGKGKAIIGGIKIVLIG
notes: latent pro-enzyme (active domain + C-terminal domain) without transit peptide; E. coli BL21(DE3), pGEX-6P-1, N-terminal GST tag cut with HRV-3C protease; cloned from walnut leaf cDNA, Val107Ile versus FJ769240.1
As to B1, the Km in series [1] came to 0.75 ± 0.13 mM; in series [2], 0.451 ± 0.084 mM; in series [3] it was 6.2 ± 1.0 mM; in series [4], 1.42 ± 0.37 mM. For the same protein, the turnover number (kcat) came to 92.5 ± 7.8 s⁻¹ in series [1], 24.7 ± 1.5 s⁻¹ in series [2], 111 ± 8.8 s⁻¹ in series [3] and 6 ± 1.1 s⁻¹ in series [4]. Besides, the kcat/Km in series [1] was found to be 123000 ± 24000 M⁻¹ s⁻¹; in series [2] it was 55000 ± 11000 M⁻¹ s⁻¹; in series [3], 18100 ± 3400 M⁻¹ s⁻¹; in series [4] it was 4300 ± 1400 M⁻¹ s⁻¹.

B2: jrPPO1-wt (Juglans regia; F360G/V307I) (protein)
chain: DPVSAPELTLCSEADLPAGALPVNCCPPTSKKIKDFVLPSQNTPLRVRPAAHLVDNDYIAKYNKGIELMKSLPADDPRSFTQQANVHCAYCDGAYTQVGFPDLSLQVHECWLFFPFHRYYVYFFEKILGKLIGDPTFALPFWNWDSPPGMQLPSLYAVSNSAIYDPLRNANHQPPTIIDLDYGETSESTTTTDQVPSNLKIMYRQMISGAKNPTLFFGSPYRAGDEPDPGAGTIESTPHNNIHLWTGDDTQPNIENMGNGYSAGRDPIFFAHHSNVDRMWTIWKTLGGKRKDITDPDWLNSSFFFYDENADPVRVKVKDCVDNTKLRYVYQDVEIPWLKTKPTPRKSRVKKVAKAFPAGHGGVAQAAETSSVKFPIVLDKVISTVVARPKKSRSKKEKDDEEEVLVIEGIEVERDIPVKFDVFINDEDDAPTGPGINTEFAGSFVSVPQQKQTKKKKTYLRIGISDLLEDLGAEDDDSVVVTLVPRFGKGKAIIGGIKIVLIG
notes: as for B1
Take B2: in series [1], the Km was 1.2 ± 0.4 mM, the kcat stood at 7.36 ± 0.98 s⁻¹ and the kcat/Km amounted to 5900 ± 2200 M⁻¹ s⁻¹. In series [2], the Km was 3.05 ± 0.72 mM, the kcat amounted to 0.323 ± 0.025 s⁻¹ and the kcat/Km amounted to 103 ± 26 M⁻¹ s⁻¹.

B3: jrPPO1-wt (Juglans regia; N340K/V307I) (protein)
chain: DPVSAPELTLCSEADLPAGALPVNCCPPTSKKIKDFVLPSQNTPLRVRPAAHLVDNDYIAKYNKGIELMKSLPADDPRSFTQQANVHCAYCDGAYTQVGFPDLSLQVHECWLFFPFHRYYVYFFEKILGKLIGDPTFALPFWNWDSPPGMQLPSLYAVSNSAIYDPLRNANHQPPTIIDLDYGETSESTTTTDQVPSNLKIMYRQMISGAKNPTLFFGSPYRAGDEPDPGAGTIESTPHKNIHLWTGDDTQPNIENMGNFYSAGRDPIFFAHHSNVDRMWTIWKTLGGKRKDITDPDWLNSSFFFYDENADPVRVKVKDCVDNTKLRYVYQDVEIPWLKTKPTPRKSRVKKVAKAFPAGHGGVAQAAETSSVKFPIVLDKVISTVVARPKKSRSKKEKDDEEEVLVIEGIEVERDIPVKFDVFINDEDDAPTGPGINTEFAGSFVSVPQQKQTKKKKTYLRIGISDLLEDLGAEDDDSVVVTLVPRFGKGKAIIGGIKIVLIG
notes: as for B1
In the case of B3, in series [1], the Km is listed as 19.8 ± 4.7 mM, the kcat was 2.51 ± 0.4 s⁻¹ and the kcat/Km came to 132 ± 97 M⁻¹ s⁻¹. Moreover, in series [2], the Km was determined as 8.2 ± 1.4 mM, the kcat stood at 0.0542 ± 0.0034 s⁻¹ and the kcat/Km turned out to be 6.6 ± 1.2 M⁻¹ s⁻¹.

B4: jrPPO1-wt (Juglans regia; L344R/N340T/V307I) (protein)
chain: DPVSAPELTLCSEADLPAGALPVNCCPPTSKKIKDFVLPSQNTPLRVRPAAHLVDNDYIAKYNKGIELMKSLPADDPRSFTQQANVHCAYCDGAYTQVGFPDLSLQVHECWLFFPFHRYYVYFFEKILGKLIGDPTFALPFWNWDSPPGMQLPSLYAVSNSAIYDPLRNANHQPPTIIDLDYGETSESTTTTDQVPSNLKIMYRQMISGAKNPTLFFGSPYRAGDEPDPGAGTIESTPHTNIHRWTGDDTQPNIENMGNFYSAGRDPIFFAHHSNVDRMWTIWKTLGGKRKDITDPDWLNSSFFFYDENADPVRVKVKDCVDNTKLRYVYQDVEIPWLKTKPTPRKSRVKKVAKAFPAGHGGVAQAAETSSVKFPIVLDKVISTVVARPKKSRSKKEKDDEEEVLVIEGIEVERDIPVKFDVFINDEDDAPTGPGINTEFAGSFVSVPQQKQTKKKKTYLRIGISDLLEDLGAEDDDSVVVTLVPRFGKGKAIIGGIKIVLIG
notes: as for B1
For the protein B4, in series [1], the Km came out at 6.6 ± 1.5 mM, the kcat worked out at 0.789 ± 0.079 s⁻¹ and the kcat/Km is 122 ± 26 M⁻¹ s⁻¹. In series [3], the Km was found to be 13.1 ± 3.3 mM, the kcat came to 0.18 ± 0.027 s⁻¹ and the kcat/Km amounted to 12.9 ± 4 M⁻¹ s⁻¹.

B5: jrPPO1-wt (Juglans regia; L344R/V307I) (protein)
chain: DPVSAPELTLCSEADLPAGALPVNCCPPTSKKIKDFVLPSQNTPLRVRPAAHLVDNDYIAKYNKGIELMKSLPADDPRSFTQQANVHCAYCDGAYTQVGFPDLSLQVHECWLFFPFHRYYVYFFEKILGKLIGDPTFALPFWNWDSPPGMQLPSLYAVSNSAIYDPLRNANHQPPTIIDLDYGETSESTTTTDQVPSNLKIMYRQMISGAKNPTLFFGSPYRAGDEPDPGAGTIESTPHNNIHRWTGDDTQPNIENMGNFYSAGRDPIFFAHHSNVDRMWTIWKTLGGKRKDITDPDWLNSSFFFYDENADPVRVKVKDCVDNTKLRYVYQDVEIPWLKTKPTPRKSRVKKVAKAFPAGHGGVAQAAETSSVKFPIVLDKVISTVVARPKKSRSKKEKDDEEEVLVIEGIEVERDIPVKFDVFINDEDDAPTGPGINTEFAGSFVSVPQQKQTKKKKTYLRIGISDLLEDLGAEDDDSVVVTLVPRFGKGKAIIGGIKIVLIG
notes: as for B1
In the case of B5, in series [1], the Km came to 2.36 ± 0.41 mM, the kcat came out at 24.9 ± 1.6 s⁻¹ and the kcat/Km worked out at 10600 ± 2000 M⁻¹ s⁻¹. In addition, in series [2], the Km turned out to be 2.68 ± 0.53 mM, the kcat was 1.62 ± 0.09 s⁻¹ and the kcat/Km was 600 ± 120 M⁻¹ s⁻¹.

B6: jrPPO1-wt (Juglans regia; L344R/N340K/V307I) (protein)
chain: DPVSAPELTLCSEADLPAGALPVNCCPPTSKKIKDFVLPSQNTPLRVRPAAHLVDNDYIAKYNKGIELMKSLPADDPRSFTQQANVHCAYCDGAYTQVGFPDLSLQVHECWLFFPFHRYYVYFFEKILGKLIGDPTFALPFWNWDSPPGMQLPSLYAVSNSAIYDPLRNANHQPPTIIDLDYGETSESTTTTDQVPSNLKIMYRQMISGAKNPTLFFGSPYRAGDEPDPGAGTIESTPHKNIHRWTGDDTQPNIENMGNFYSAGRDPIFFAHHSNVDRMWTIWKTLGGKRKDITDPDWLNSSFFFYDENADPVRVKVKDCVDNTKLRYVYQDVEIPWLKTKPTPRKSRVKKVAKAFPAGHGGVAQAAETSSVKFPIVLDKVISTVVARPKKSRSKKEKDDEEEVLVIEGIEVERDIPVKFDVFINDEDDAPTGPGINTEFAGSFVSVPQQKQTKKKKTYLRIGISDLLEDLGAEDDDSVVVTLVPRFGKGKAIIGGIKIVLIG
notes: as for B1
Consider B6, for which, in series [1], the Km amounted to 6.8 ± 1.3 mM, the catalytic constant (kcat) worked out at 0.029 ± 0.002 s⁻¹ and the kcat/Km stood at 4.28 ± 0.85 M⁻¹ s⁻¹. Moreover, in series [3], the Km is on record as 16.5 ± 4.8 mM, the kcat was 0.104 ± 0.019 s⁻¹ and the kcat/Km worked out at 6 ± 2.1 M⁻¹ s⁻¹.
